Experiments:
mouse sFlt-1-Fc (mouse) = mouse sFlt-1-Fc (mouse) (UniProt P35969); assay: ELISA
VEGFR-2 (Homo sapiens) = VEGFR-2 (Homo sapiens) (UniProt P35968); conditions: cited from earlier work
Chain of UniProt P35968 (P35968 20-1356): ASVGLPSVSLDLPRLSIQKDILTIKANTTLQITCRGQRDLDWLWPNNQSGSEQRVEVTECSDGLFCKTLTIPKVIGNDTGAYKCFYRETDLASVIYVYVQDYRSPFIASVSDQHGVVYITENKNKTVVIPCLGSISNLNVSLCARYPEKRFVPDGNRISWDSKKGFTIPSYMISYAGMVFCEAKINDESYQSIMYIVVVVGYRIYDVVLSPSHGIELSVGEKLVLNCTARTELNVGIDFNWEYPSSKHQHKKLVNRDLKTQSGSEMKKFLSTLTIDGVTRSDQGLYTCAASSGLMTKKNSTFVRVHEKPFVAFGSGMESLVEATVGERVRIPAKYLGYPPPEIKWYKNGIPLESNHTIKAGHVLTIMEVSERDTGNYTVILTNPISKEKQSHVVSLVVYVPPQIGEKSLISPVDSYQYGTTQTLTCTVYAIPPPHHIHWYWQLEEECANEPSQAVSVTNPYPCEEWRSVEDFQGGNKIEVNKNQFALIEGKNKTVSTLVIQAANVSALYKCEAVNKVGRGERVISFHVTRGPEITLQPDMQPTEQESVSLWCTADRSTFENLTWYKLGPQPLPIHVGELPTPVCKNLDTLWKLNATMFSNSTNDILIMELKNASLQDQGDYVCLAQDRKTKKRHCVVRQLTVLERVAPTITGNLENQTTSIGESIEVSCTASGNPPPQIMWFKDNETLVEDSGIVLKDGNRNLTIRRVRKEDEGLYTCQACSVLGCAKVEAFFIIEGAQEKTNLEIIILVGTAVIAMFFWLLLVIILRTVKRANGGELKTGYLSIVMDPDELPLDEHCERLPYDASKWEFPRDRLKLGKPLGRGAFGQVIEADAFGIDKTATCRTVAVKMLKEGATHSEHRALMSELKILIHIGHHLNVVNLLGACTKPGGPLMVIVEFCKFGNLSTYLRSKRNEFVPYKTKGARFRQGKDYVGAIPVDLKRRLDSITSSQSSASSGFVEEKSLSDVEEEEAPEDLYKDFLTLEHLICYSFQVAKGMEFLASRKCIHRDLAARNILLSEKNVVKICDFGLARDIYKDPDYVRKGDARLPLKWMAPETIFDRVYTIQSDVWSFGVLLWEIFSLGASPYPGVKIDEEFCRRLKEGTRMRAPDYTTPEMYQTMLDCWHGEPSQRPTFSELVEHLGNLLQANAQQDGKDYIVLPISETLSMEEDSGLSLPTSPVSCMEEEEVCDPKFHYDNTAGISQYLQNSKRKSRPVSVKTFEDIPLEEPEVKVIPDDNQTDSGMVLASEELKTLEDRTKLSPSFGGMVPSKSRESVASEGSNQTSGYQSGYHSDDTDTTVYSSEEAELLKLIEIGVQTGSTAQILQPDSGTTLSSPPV

Chain of UniProt P35969 (P35969 23-758): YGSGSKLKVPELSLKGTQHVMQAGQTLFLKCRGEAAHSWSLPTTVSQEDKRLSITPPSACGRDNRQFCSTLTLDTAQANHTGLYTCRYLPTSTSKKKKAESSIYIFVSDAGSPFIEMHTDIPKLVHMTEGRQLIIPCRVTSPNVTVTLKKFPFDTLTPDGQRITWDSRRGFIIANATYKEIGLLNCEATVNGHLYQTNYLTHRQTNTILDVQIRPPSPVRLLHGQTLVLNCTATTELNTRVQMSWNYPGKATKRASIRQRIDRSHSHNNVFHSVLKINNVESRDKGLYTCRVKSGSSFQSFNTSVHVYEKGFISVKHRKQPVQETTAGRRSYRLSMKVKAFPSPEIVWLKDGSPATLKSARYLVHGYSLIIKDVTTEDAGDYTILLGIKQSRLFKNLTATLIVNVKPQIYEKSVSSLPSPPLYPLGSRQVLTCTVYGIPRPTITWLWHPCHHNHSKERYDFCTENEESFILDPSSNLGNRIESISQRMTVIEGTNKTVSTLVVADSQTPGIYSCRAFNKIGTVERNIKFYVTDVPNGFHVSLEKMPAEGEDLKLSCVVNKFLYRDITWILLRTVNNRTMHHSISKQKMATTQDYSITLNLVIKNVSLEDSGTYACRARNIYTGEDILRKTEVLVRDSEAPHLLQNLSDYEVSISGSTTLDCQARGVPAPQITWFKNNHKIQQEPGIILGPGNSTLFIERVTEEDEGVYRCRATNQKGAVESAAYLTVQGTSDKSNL

Row | Substance | percent decrease of ELISA-detectable sFlt-1 when VEGF was co-expressed (mouse sFlt-1-Fc (mouse)) | percent decrease of free sFlt-1 in plasma of co-treated mice (mouse sFlt-1-Fc (mouse)) | Kd (VEGFR-2 (Homo sapiens))
1 | VEGF165 (ligand) | 70 to 80% | > 70% | –
2 | VEGF (from UniProt P15692) | – | – | 0.76 nM
